Test results reported in paper doi:10.1101/498865.
Read-outs that look alike come from different tables or passages of the source.

Columns and labels:
Experiment in all cases: other fluorescence titration
[1] = target: CyPet-Myo1^IQ1-YPet FRET reporter protein (S. pombe)
[2] = target: CyPet-Myo1^IQ12-YPet FRET reporter protein (S. pombe)
[3] = target: CyPet-Myo1^IQ12-S742D-YPet FRET reporter protein (S. pombe)
[4] = target: CyPet-Myo1^IQ1-YPet FRET reporter protein (S. pombe); remark: listed apart in the source
[5] = target: CyPet-Myo1^IQ12-YPet FRET reporter protein (S. pombe); remark: listed apart in the source

Chain of Cam1 (fission yeast calmodulin), amino-terminally acetylated (P05933 whole entry): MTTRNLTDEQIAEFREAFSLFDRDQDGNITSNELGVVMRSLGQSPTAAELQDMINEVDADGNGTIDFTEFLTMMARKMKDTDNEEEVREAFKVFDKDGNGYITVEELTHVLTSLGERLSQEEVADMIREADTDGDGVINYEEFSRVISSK

| Molecule | Kd [1] | KD of the first binding event [2] | KD of the second binding event [2] | Kd [3] | stoichiometry N [3] | Kd [4] | KD of the phase with 70% of the signal change [5] | stoichiometry N [5] |
| --- | --- | --- | --- | --- | --- | --- | --- | --- |
| Cam1 (fission yeast calmodulin), amino-terminally acetylated (from UniProt P05933 1-150) (natural protein) | < 100 nM | < 100 nM | 680 nM | – | – | – | – | – |
| Cam2 (fission yeast calmodulin-like protein) (natural protein) MPASKEQTDEMKEAFVLYDIDKDGLIPTSHVGSVLRSLGINVTDAELAKLSNELGDAIDEKKFMSFVSNKLRETESEEEYIKAFRVFDKDNSGYIETAKFADYMKTLGEKLSDNEVQLMVQEADPTNSGSFDYYDFVQRIMAK | – | – | – | 250 nM | 1 | 400 nM | 1100 nM | 2 |
